Where no end group is shown, it is not given here.
Target: human PAC1 receptor (human), P41586
Experiment: cell-based or functional assay

human PAC1 receptor (human), P41586, sequence (P41586 21-468): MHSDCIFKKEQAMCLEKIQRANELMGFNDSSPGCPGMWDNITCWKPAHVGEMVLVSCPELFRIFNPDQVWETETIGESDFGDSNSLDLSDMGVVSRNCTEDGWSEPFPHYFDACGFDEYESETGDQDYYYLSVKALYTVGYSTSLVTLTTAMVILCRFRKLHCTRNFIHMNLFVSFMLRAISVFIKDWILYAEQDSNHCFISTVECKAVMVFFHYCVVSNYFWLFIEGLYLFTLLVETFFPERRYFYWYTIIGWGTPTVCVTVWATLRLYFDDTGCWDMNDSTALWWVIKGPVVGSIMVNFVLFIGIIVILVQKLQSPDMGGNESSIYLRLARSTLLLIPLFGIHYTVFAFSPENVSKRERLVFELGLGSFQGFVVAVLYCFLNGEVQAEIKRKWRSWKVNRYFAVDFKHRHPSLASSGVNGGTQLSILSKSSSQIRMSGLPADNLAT

B1: MAXCAP 4 (peptide)
peptide: HSDGIFAPGNSVFKECMKQKKKEFKAGK
modifications: ends and bridges not checked
cAMP (fmol) at 10 nM: 4060 fmol
cAMP (fmol) at 100 nM: 6400 fmol
cAMP (fmol) at 1 µM: 6400 fmol
cAMP (fmol) at 10 µM: 5780 fmol

B2: MAXCAP 1 (peptide)
peptide: HSDGIFTDSYSSRYRKQMAVKKYLAAVLPGNSVFKECMKQKKKEFKAGK
modifications: ends and bridges not checked
cAMP (fmol) at 1 nM: 3170 fmol
cAMP (fmol) at 10 nM: 6220 fmol
cAMP (fmol) at 100 nM: 4710 fmol
